Results: US8846363B2, “Compositions of and methods of using sulfatases from Flavobacterium heparinum” (priority 2007, dated 2014)

Tests used:
Assay type in all cases: biochemical
[1] = Effect of pH on 6-O-sulfatase activity by capillary electrophoresis
Procedure: Initial assessment of substrate specificity and pH optima was made using a capillary electrophoresis-based assay for the detection of desulfated products. Preliminary enzyme activity was measured against the following series of fluorescently derivatized, monosulfated gluco and galactopyranosides: 4-MU-GlcNAc,6S, 4-MU-GlcNS, 4-MU-GalNAc,6S and 4-MU-Gal6S. Standard reactions included 1 mM substrate, 1-10 μM enzyme, 50 mM sodium acetate, pH 5.5-6.5 and 5 mM CaCl2 in a 20 μL reaction volume. For pilot experiments, exhaustive reactions involved overnight incubations at 30° C. Enzyme was inactivated by heat denaturation at 95° C. for 10 minutes, followed by a 10-fold dilution into water. Reaction products were resolved by capillary electrophoresis using a 25 cm long, 75 μm (i.d.) fused silica capillary (Agilent Technologies, Palo Alto, Calif.). […] Substrate desulfation was measured as a percentage of substrate depletion relative to a minus enzyme control as monitored by the loss of UV absorbance at 315 nm detected at approximately 4 minutes. […]
The effect of pH was likewise measured by capillary electrophoresis using the following three sets of buffers with overlapping pH ranging from 4.5 to 8.0:50 mM sodium citrate at 4.5, 5.0, and 5.5; 50 mM MES at 5.5, 6.0, 6.5 and 7.0; and 50 mM MOPS at 6.5, 7.0, 7.5, and 8.0. […]

[2] = Coupled 6-O-sulfatase/β-glucosidase fluorimetric plate assay (reaction conditions, steady-state kinetics)
Description: (§1) Indirect measurement of enzyme activity was also made using a fluorimetrically-based plate assay in which the prerequisite desulfation of the appropriate glucopyranoside 1→4 methlybelliferone substrate by either the 6-O-sulfatase or N-sulfamidase was coupled to the glucosidase-mediated hydrolysis of the stereo-specific 1→4 glycosidic linkage between the pyranose ring and the adjoining fluorophore. Release of the free fluorophore (4-MU) was monitored spectroscopically as described above for the arylsulfatase assay using 4-MU sulfate. The two sulfatase assays differed in the choice of substrate in accordance to their specificity as well as the glucosidase added during the second, […] step. For the 6-O-sulfatase, the hydrolysis of the substrate 4-MU-β-D-GlcNAc,6S at the 6-OH position was coupled to β-glucosidase purified from sweet almonds (MP Biomedicals, Solon, Ohio, Catalog No. 195197). Likewise, N-sulfamidase hydrolysis of 4-MU-α-D-GlcNS at the 2-amino position was coupled to α-glucosidase (MP Biomedicals, Catalog No. 153487). […] The presumption of the first (sulfatase) activity being the rate-limiting step was established experimentally. Reaction conditions were optimized to satisfy three related criteria: 1) linear readout of fluorescent signal which is directly proportional to sulfatase activity; 2) quantitative release of 4-MU by glucosidase activity under every biochemical condition examined and; 3) negligible fluorescent quenching of the free chromophore.
For the 6-O-sulfatase/β-glucosidase assay, the standard reaction conditions included 2 μM recombinant enzyme, 50 mM sodium acetate buffer, pH 5.5, and 5 mM CaCl2 in a 20 μl reaction volume. 4-MU-GlcNAc,6S substrate concentration was varied from 0.1-2 mM. 2 μL of enzyme were added to each well of a microtiter plate (prechilled on ice), plate gently vortexed, and contents of each well spun down for 1 minute at 500×g, 4° C. […] Reactions were transferred to a black 96 well, flat-bottom FIA-plate and fluorescence measured as described above for the detection of free 4-MU. […]

[3] = Coupled N-sulfamidase/α-glucosidase fluorimetric plate assay (reaction conditions, steady-state kinetics)
Description: as §1
Coupled N-sulfamidase assay was generally described for the 6-O-sulfatase, but with the following modifications: 4-MU-GlcNS as substrate, 50 mM sodium acetate at pH 6.0 (instead of 5.5) and 1 μM enzyme. For the second enzyme step, 5 units of α-glucosidase were added. Enzyme incubation was carried out for 22 hours at 37° C. The obvious difference in enzyme efficacies between α-glucosidase versus β-glucosidase is reflected in the substantially longer incubation times required for the α-glucosidase to quantitatively hydrolyze the glycosidic α1→4 linkage between the fluorophore and the desulfated glucosamine. […]

[4] = Effect of pH on N-sulfamidase activity by capillary electrophoresis
Procedure: Initial assessment of substrate specificity and pH optima was made using a capillary electrophoresis-based assay for the detection of desulfated products. Preliminary enzyme activity was measured against the following series of fluorescently derivatized, monosulfated gluco and galactopyranosides: 4-MU-GlcNAc,6S, 4-MU-GlcNS, 4-MU-GalNAc,6S and 4-MU-Gal6S. Standard reactions included 1 mM substrate, 1-10 μM enzyme, 50 mM sodium acetate, pH 5.5-6.5 and 5 mM CaCl2 in a 20 μL reaction volume. For pilot experiments, exhaustive reactions involved overnight incubations at 30° C. Enzyme was inactivated by heat denaturation at 95° C. for 10 minutes, followed by a 10-fold dilution into water. Reaction products were resolved by capillary electrophoresis using a 25 cm long, 75 μm (i.d.) fused silica capillary (Agilent Technologies, Palo Alto, Calif.). Electrophoresis was carried out under negative polarity by applying a voltage of −15 kV (˜1.2 W) for 10 minutes. Substrate desulfation was measured as a percentage of substrate depletion relative to a minus enzyme control as monitored by the loss of UV absorbance at 315 nm detected at approximately 4 minutes. A standard capillary electrophoresis buffer included 50 mM Tris and 10 μM dextran sulfate (average MW of 10,000 Da) adjusted to pH 2.0 with phosphoric acid. At this pH, saccharide migration occurred on the basis of charge without the influence of electro-osmotic flow.
The effect of pH was likewise measured by capillary electrophoresis using the following three sets of buffers with overlapping pH ranging from 4.5 to 8.0:50 mM sodium citrate at 4.5, 5.0, and 5.5; 50 mM MES at 5.5, 6.0, 6.5 and 7.0; and 50 mM MOPS at 6.5, 7.0, 7.5, and 8.0. Reactions included 1 μM enzyme, 2 mM 4-MU-GlcNAc,6S (for 6-O-sulfatase) or 4-MU-GlcNS (for N-sulfamidase), 50 mM buffer and 5 mM CaCl2 in a 20 μL reaction volume. Assay was initiated by the addition of 2 μl of a 10× enzyme stock to 18 μL of preheated reaction mixture. […]

Row | Molecule | activity below pH 4.5 ([1]; below pH 4.5) | activity in acetate buffer compared to sulfonate buffers (MES, MOPS) ([1]; same pH range) | effect of Mg^+2 or Mn^+2 on activity ([2]; 1 mM or 5 mM divalent metal) | activity remaining relative to the zero NaCl control ([2]; 1 M NaCl) | activation by the presence of calcium ([2]; calcium added) | calcium requirement for activity [3] | effect of Mg^+2 or Mn^+2 on activity ([3]; 1 mM or 5 mM divalent metal) | activity remaining relative to the zero NaCl control ([3]; 1 M NaCl) | activity below pH 4.5 ([4]; below pH 4.5) | pH range of activity compared with the other enzyme ([4]; compared with 6-O-sulfatase) | activity in acetate buffer compared to sulfonate buffers (MES, MOPS) ([4]; same pH range)
1 | Flavobacterium heparinum 6-O-sulfatase (ORF B), recombinant, NH2-terminal truncation lacking signal sequence, SEQ ID NO: 2 (Pedobacter heparinus DSM 2366) (protein, E. coli BL21(DE3), N-terminal 6xHis removed by thrombin) TLMSCQQPKPAESAKRPNIVFIMTDDHTIQAISAYGSKLVKTPNLDRIANEGMLFNNCFVTNAVCGPSRATILTGKYSHLNGLTDNSKVFDSTQVIYPQLLKKAGYQTAMIGKWHLGSTPMGFDYYSILPNQGQYYQPEFIENGHLVKEKGYVTDLITDKAIGFLEKRDHDKPFLMIYQHKAPHRNWLPAPRHLGMFDDTVFPEPANLLDDFKGRGRAAKEQLMNISTDMWPAWDLKMLSTAQLDSMAKLPVSPKFKDAKGDDYQQANDPSLDKARFFEVYNRMTDAEKVQWRKVYDKRVAEFKRLNPKGADLVRWKYQQYMRDYLACVVSVDENVGRLMDYLKKIGELDNTIIVYTSDQGFYLGEHGYFDKRFMYDESFRTPLMVRYPPSVKAGSVSNAFAMNLDFAPTLLDYAGVKIPADMQGLSLRPVLDNAGKSPENWRKAVYYHYYEFPSWHMVKRHYGIRTERYKLIHFYNDIDEWELYDMQKDPHEMQNLYNDKAYEPIIKDLKVQMKKLQVQYKDTNPTEAL | Neither enzyme was active | higher activity in acetate buffer | only negligible effects | less than 20% | 2-3 fold |  |  |  |  |  | 
2 | Flavobacterium heparinum N-sulfamidase (ORF C), recombinant, NH2-terminal truncation lacking signal sequence, SEQ ID NO: 4 (Pedobacter heparinus DSM 2366) (protein, E. coli BL21(DE3), N-terminal 6xHis removed by thrombin) SCTSPEKKTDRPNILMIMSDNQSWNHVGSYGDQTVRTPNMDRIAKEGVRFTNAFCSSPSCTPARAGMLTGQDIWRLEDGGNLWGVLPVKYKVYPDLLEEAGYAIGFQGKGWGPGSFEANKRPRNPAGNEFKSFGAFLKDKKEGPWCYWISSHEPHRPYVEGSGEKAGIDPNKVKVPAYLPDHISIRKDIADYYAAVETFDRELGEALDQLKASGELDNTVIVVCSDNGWQMPRGLANLYDFGTHVPLIISWPGKFKQDVVADNLVTLNDLAPTFLQLGKVPVPADMTGKSLLPIVEAGKKDEKPRDYVVLGRERHAFVRRHGLGYPGRAIRTKDYLYIKNYEPNRWPAGDPPFYGDIDPYMFNWPGETKYYLIEHKDDPKVKSFFELGMGKRPAEELFDINKDPDELHNLAALPEYQKIKQELVAKLRNYLVATKDPRETNGNIQIWDTAAYFSEIDKTPKPSKEMQKRFKLDSSYNYLK |  |  |  |  |  | required calcium for activity | only negligible effects | less than 20% | Neither enzyme was active | active over a broader range, especially above pH 7.0 | higher activity in acetate buffer
